Experimental data reported in paper PMC314469, “Protein Interaction Networks by Proteome Peptide Scanning” (PLoS Biology, 2004).

T1: Boi1 SH3 (BOI1_YEAST), P38041
T1 chain: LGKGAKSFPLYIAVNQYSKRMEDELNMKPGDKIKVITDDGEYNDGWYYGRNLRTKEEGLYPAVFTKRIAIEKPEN

T2: Boi2 SH3 (BOI2_YEAST), P39969
T2 chain: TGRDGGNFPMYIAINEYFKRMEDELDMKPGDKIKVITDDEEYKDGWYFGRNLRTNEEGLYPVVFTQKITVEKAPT

T3: Myo5 SH3 (MYO5_YEAST), Q04439
T3 chain: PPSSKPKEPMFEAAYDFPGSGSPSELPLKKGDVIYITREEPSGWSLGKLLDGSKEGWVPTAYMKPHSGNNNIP

T4: Rvs167 SH3 (RV167_YEAST), P39743
T4 chain: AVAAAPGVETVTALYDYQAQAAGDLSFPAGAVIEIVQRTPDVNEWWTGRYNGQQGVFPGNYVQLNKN

T5: Yfr024 SH3 (LSB3_YEAST), P43603
T5 chain: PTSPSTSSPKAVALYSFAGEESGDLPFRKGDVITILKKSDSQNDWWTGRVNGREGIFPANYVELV

T6: Yhr016c SH3 (YSC84_YEAST), P32793
T6 chain: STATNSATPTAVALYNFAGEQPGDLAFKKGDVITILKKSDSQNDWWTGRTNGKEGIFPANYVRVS

B1: YOR389W 154-167 (peptide)
chain: GDHPKGPPPPPPPD
B2: YPL277C 154-167 (peptide)
chain: GDHPKGPPPPPPPP
B3: YBR214W 193-206 (peptide)
chain: GEMVKLTPKNPFYK
B4: YJR122W 473-486 (peptide)
chain: GENIKITPQKPFWF
B5: YNL094W 196-209 (peptide)
chain: GFLSKKVPNTPVVV
B6: YOR116C 826-839 (peptide)
chain: GFQDRSLPHFPKNS
B7: YDL051W 238-251 (peptide)
chain: GHKKKNLPKFPKNK
B8: YMR309C 639-652 (peptide)
chain: GIKVKRIPYSPKSI
B9: YLR260W 30-43 (peptide)
chain: GIMIKAKPSSPYTY
B10: YDR333C 253-266 (peptide)
chain: GKDHRLAPNGPGMH
B11: YOL072W 279-292 (peptide)
chain: GKMVKWGPLRPFLS
B12: YLR460C 162-175 (peptide)
chain: GLDLKWEPSTPQRK
B13: YLR092W 403-416 (peptide)
chain: GLMSKLGPNLPASI
B14: YCR102C 154-167 (peptide)
chain: GLNLKWEPSTPQRN
B15: YPR019W 330-343 (peptide)
chain: GLVLRSTPVIPDMK
B16: YMR089C 148-161 (peptide)
chain: GNNSRNIPPPPPPP

What was measured:
Assay in all cases: SPOT array
[1] = target: T1, Boi1 SH3 (BOI1_YEAST), P38041
[2] = target: T2, Boi2 SH3 (BOI2_YEAST), P39969
[3] = target: T3, Myo5 SH3 (MYO5_YEAST), Q04439
[4] = target: T4, Rvs167 SH3 (RV167_YEAST), P39743
[5] = target: Sho1 SH3 (SHO1_YEAST), P40073
Sequence of Sho1 SH3 (SHO1_YEAST), P40073 (P40073 295-366): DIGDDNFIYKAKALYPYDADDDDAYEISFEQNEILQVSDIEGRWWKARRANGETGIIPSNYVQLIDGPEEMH

[6] = target: T5, Yfr024 SH3 (LSB3_YEAST), P43603
[7] = target: T6, Yhr016c SH3 (YSC84_YEAST), P32793

| Binder | normalised SPOT signal, Boehringer light units (BLU); mean over the file's lines of this peptide [1] | normalised SPOT signal, Boehringer light units (BLU); mean over the file's lines of this peptide [2] | normalised SPOT signal, Boehringer light units (BLU); mean over the file's lines of this peptide [3] | normalised SPOT signal, Boehringer light units (BLU); mean over the file's lines of this peptide [4] | normalised SPOT signal, Boehringer light units (BLU); mean over the file's lines of this peptide [5] | normalised SPOT signal, Boehringer light units (BLU); mean over the file's lines of this peptide [6] | normalised SPOT signal, Boehringer light units (BLU); mean over the file's lines of this peptide [7] |
| --- | --- | --- | --- | --- | --- | --- | --- |
| B1 | 30.8 | 1.7 | 40100 | 54.8 | 28.1 | 0 | 3.6 |
| B2 | 70 | 0.3 | 20200 | 10.9 | 6.3 | 11.5 | 23.3 |
| B3 | 152 | 23.6 | 408 | 73.6 | 60.2 | 208 | 44.4 |
| B4 | 82.4 | 35.5 | 115 | 74.1 | 46 | 29.7 | 33 |
| B5 | 426 | 5.3 | 71.3 | 100 | 47.5 | 81.6 | 24.7 |
| B6 | 88.7 | 18.7 | 178 | 240 | 5160 | 180 | 49.7 |
| B7 | 517 | 23.1 | 789 | 31.7 | 4690 | 594 | 47.5 |
| B8 | 136 | 1.5 | 391 | 57.5 | 15.1 | 178 | 15.9 |
| B9 | 69.6 | 53.5 | 236 | 248 | 62.2 | 662 | 197 |
| B10 | 2160 | 4.7 | 218 | 3.1 | 36.4 | 29.4 | 24.5 |
| B11 | 64.2 | 153 | 645 | 1050 | 148 | 1990 | 984 |
| B12 | 2030 | 6.1 | 164 | 73 | 62.6 | 1010 | 342 |
| B13 | 118 | 40 | 287 | 275 | 63.1 | 606 | 41.6 |
| B14 | 447 | 4.6 | 105 | 10.9 | 62.8 | 1020 | 152 |
| B15 | 116 | 126 | 209 | 5260 | 60.9 | 2380 | 302 |
| B16 | 61.5 | 14.2 | 10300 | 49.6 | 28.3 | 62 | 15.8 |
